Data on five molecules can be found in patent US20110077204A1, “Agent for Targeted Drug Delivery To Cerebral Neurons” (Kagoshima University, priority 2006, published 2011).

In one data set the test system is raphe nuclei. As to conditions: in vivo; cited from earlier work.
The test system of data set [1] is brain neurons. As to conditions: rat, in vivo.
The test system of data set [2] is brain neurons. As to conditions: rat, in vivo. The source holds these as a separate data set.
The next data set concerns brain parenchyma. As to conditions: injected directly into the cerebrospinal fluid; cited from earlier work.

For the molecule `N=C(N)c1ccc(/C=C/c2ccc(C(=N)N)cc2O)cc1` [fluorogold], in the data set with raphe nuclei, the “Appearance of label in raphe nuclei” value is reported as “the label appeared in the raphe nuclei”.

As to cholera toxin, the “Appearance of label in raphe nuclei” value in the data set with raphe nuclei is recorded as “the label appeared in the raphe nuclei”.

Turning to cholera toxin B-subunit [CTB], in the data set on brain neurons [1], the “Non-specific infiltration through brain surface or ventricle surface” value is on record as “does not infiltrate indiscriminately through the brain surface or the ventricle surface”; the “Uptake by cerebellar Purkinje cells” value is “accumulated in the neurons of the raphe nuclei and Purkinje cells”; the “Uptake by other cell populations (cerebral neocortex, cerebral paleocortex, hypothalamus, thalamus, brainstem)” value was “incorporated”; the “Uptake by raphe nuclei neurons” value is “accumulated in the neurons of the raphe nuclei and Purkinje cells”.

In the case of horseradish peroxidase [HRP], in the data set with brain neurons [2], the “Detectable level of uptake of HRP label by neurons” value was “not confirmed”.

B1: glial cell line-derived neurotrophic factor (protein, UniProt P39905 78-211, looked up)
Glial cell line-derived …: SPDKQMAVLPRRERNRQAAAANPENSRGKGRRGQRGKNRGCVLTAIHLNVTDLGLGYETKEELIFRYCSGSCDAAETTYDKILKNLSRNRRLVSDKVGQACCRPIAFDDDLSFLDDNLVYHILRKHSAKRCGCI
notes: neurotrophic factor, literature report
B1: in the data set on brain parenchyma, the “Effect on dopaminergic condition” value was “can improve the dopaminergic condition” and the “Uptake by brain parenchyma” value is on record as “incorporated into brain parenchyma”.
